Measured values published in patent US7943731, “Dimerizing peptides” (Massachusetts Institute of Technology).

Experiments:
fusion peptide 3-Zif12 [1] = biological target: T1, fusion peptide 3-Zif12 (synthetic 15-mer + Zif268, UniProt P08046 P08046:335-391); test: EMSA; up to 2.5 uM protein; settings: tags: N-terminal Met-Ala, leader peptide; chain copies: 2 stated; label: 32P end-label (Klenow)
Procedure: (§1) Figure 4B: FIG. 4(A) Sequences of peptide extensions (SEQ ID NOS: 24-29) isolated from the initial selection. Numbers in parentheses give the frequency of occurrences among the 45 clones sequenced. The clones for peptide 2 included a Glu-21-to-Asp mutation in the zinc finger region that may have been partially responsible for the affinity of this peptide. (B) Gel mobility-shift assays using purified fusion peptides 1, 3, and 5. Protein (2.5 µM, 250 nM, 25 nM, 250 pM, and no protein) was incubated with DNA containing either an inverted repeat of Zif12 sites or a single Zif12 site and then electrophoresed through native polyacrylamide gels. The reduced mobility of the inverted repeat probe in the presence of protein indicates the formation of protein-DNA complexes. Similar results were obtained with fusion peptides 2 and 6. Binding of peptide 4 depend on disulfide bond formation.
(§2) To assess their DNA-binding activity, peptides obtained in these initial selections were expressed in *Escherichia coli* (as fusions with Zif12), purified, and tested in gel mobility-shift assays (FIG. 4B). These fusion peptides bound specifically to duplex DNA containing an inverted repeat of the Zif12 sites, showing little or no activity with DNA containing a single site. The complexes with the inverted-repeat site all migrated similarly in the gel, with a mobility for the complexes that was consistent with the formation of dimers.

fusion peptide 1-Zif12 [2] = biological target: T2, fusion peptide 1-Zif12 (synthetic 15-mer + Zif268, UniProt P08046 P08046:335-391); test: EMSA; up to 2.5 uM protein; settings: tags: N-terminal Met-Ala, leader peptide; chain copies: 2 stated; label: 32P end-label (Klenow)
T2 sequence (P08046 335-391, one chain of several): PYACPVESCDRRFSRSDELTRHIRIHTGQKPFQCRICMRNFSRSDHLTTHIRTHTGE
Procedure: as §1, §2

fusion peptide 5-Zif12 [3] = biological target: T3, fusion peptide 5-Zif12 (synthetic 15-mer + Zif268, UniProt P08046 P08046:335-391); test: EMSA; up to 2.5 uM protein; settings: tags: N-terminal Met-Ala, leader peptide; chain copies: 2 stated; label: 32P end-label (Klenow)
T3 sequence (P08046 335-391, one chain of several): as above
Procedure: as §1, §2

fusion peptide 6-Zif12 [4] = biological target: T4, fusion peptide 6-Zif12 (synthetic 15-mer + Zif268, UniProt P08046 P08046:335-391); test: EMSA; similar results to peptides 1, 3, 5; settings: tags: N-terminal Met-Ala, leader peptide; chain copies: 2 stated; label: 32P end-label (Klenow)
T4 sequence (P08046 335-391, one chain of several): as above
Procedure: as §1
as §2, with “The complexes with the inverted-repeat site all migrated similarly in the gel, with a mobility for the complexes that was consistent with the formation of dimers.” left out

[5] = biological target: Zif12 (fingers 1-2 of Zif268) (UniProt P08046 P08046:333-390); test: EMSA; no shift under these conditions; settings: tags: Gly-Ser dipeptide left at N terminus after GST removal; chain copies: 2 inferred (essentially noncooperative, one per half-site); label: 32P end-label (Klenow)
Zif12 (fingers 1-2 of Zif268), sequence (P08046 333-390, one chain of several): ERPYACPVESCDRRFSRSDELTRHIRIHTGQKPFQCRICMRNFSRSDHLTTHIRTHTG
Procedure: as §1
as §2, with “The complexes with the inverted-repeat site all migrated similarly in the gel, with a mobility for the complexes that was consistent with the formation of dimers.” left out

fusion peptide 3-Zif12 [6] = biological target: T1, fusion peptide 3-Zif12; test: EMSA; little or no activity with single site; settings: tags: N-terminal Met-Ala, leader peptide; chain copies: 2 stated; label: 32P end-label (Klenow)
Procedure: as §1, §2

fusion peptide 6-Zif12 [7] = biological target: T4, fusion peptide 6-Zif12; test: EMSA; little or no activity with single site; settings: tags: N-terminal Met-Ala, leader peptide; chain copies: 2 stated; label: 32P end-label (Klenow)
Procedure: as §1, §2

fusion peptide 1-Zif12 [8] = biological target: T2, fusion peptide 1-Zif12; test: EMSA; little or no activity with single site; settings: tags: N-terminal Met-Ala, leader peptide; chain copies: 2 stated; label: 32P end-label (Klenow)
Procedure: as §1, §2

fusion peptide 5-Zif12 [9] = biological target: T3, fusion peptide 5-Zif12; test: EMSA; little or no activity with single site; settings: tags: N-terminal Met-Ala, leader peptide; chain copies: 2 stated; label: 32P end-label (Klenow)
Procedure: as §1, §2

T1 sequence (P08046 335-391, one chain of several): as the sequence (P08046 335-391, one chain of several) above

B1: phage-selection target duplex, inverted repeat (dsDNA)
DNA 1: GGTTGCAGTGGGCGCGCCCACAGTACTTGAACGTAACG
DNA 2: CGTTACGTTCAAGTACTGTGGGCGCGCCCACTGCAACC
binding result (fusion peptide 3-Zif12 [1]): binds | binding result (fusion peptide 1-Zif12 [2]): binds | binding result (fusion peptide 5-Zif12 [3]): binds | binding result (fusion peptide 6-Zif12 [4]): binds | binding result [5]: no binding

B2: single Zif12 site mutant duplex (dsDNA)
DNA 1: GGTTGCAGTGGGCGTATGCTCAGTACTTGAACGTAACG
DNA 2: CGTTACGTTCAAGTACTGAGCATACGCCCACTGCAACC
modifications: [none]
binding result (fusion peptide 3-Zif12 [6]): no binding | binding result (fusion peptide 6-Zif12 [7]): no binding | binding result (fusion peptide 1-Zif12 [8]): no binding | binding result (fusion peptide 5-Zif12 [9]): no binding | binding result [5]: no binding
